{
  "source": "patent US6083711",
  "about": "“Proteases compositions capable of binding to said site, and methods of use thereof” (SmithKline Beecham Corporation, dated 2000)",
  "molecular_target": "the molecule itself",
  "assay": "crystal structure, homodimer",
  "data": [
    {"protein": "HSV-1 protease (enzyme) MAADAPGDRMEEPLPDRAVPIYVAGFLALYDSGDSGELALDPDTVRAALPPDNPLPINVNHRAGCEVGRVLAVVDDPRGPFFVGLIACVQLERVLETAASAAIFERRGPPLSREERLLYLITNYLPSVSLATKRLGGEAHPDRTLFAHVALCAIGRRLGTIVTYDTGLDAAIAPFRHLSPASREGARRLAAEAELALSGRTWAPGVEALTHTLLSTAVNNMMLRDRWSLVAERRRQAGIAGHTYLQA", "values": [
      {"measurement": "binding result", "value": "binds"}
    ]},
    {"protein": "unliganded HSV-2 protease (enzyme) MASAEMRERLEAPLPDRAVPIYVAGFLALYDSGDPGELALDPDTVRAALPPENPLPINVNHRARCEVGRVLAVVNDPRGPFFVGLIACVQLERVLETAASAAIFERRGPALSREERLLYLITNYLPSVSLSTKRRGDEVPPDRTLFAHVALCAIGRRLGTIVTYDTSLDAAIAPFRHLDPATREGVRREAAEAELALAGRTWAPGVEALTHTLLSTAVNNMMLRDRWSLVAERRRQAGIAGHTYLQA", "values": [
      {"measurement": "binding result", "value": "binds"}
    ]},
    {"protein": "protease from delta9 LQAS-12aa ext H6(C) VZV (enzyme) MEALYVAGLYALYSKDEGELNITPEIVRSALPPTSKIPINIDHRKDCVVGEVIAIIEDIRGPFFLGIVRCPQLHAVLFEAAHSNFFGNRDSVLSPLERALYLVTNYLPSVSLSSKRLSPNEIPDGNFFTHVALCVVGRRVGTVVNYDCTPESSIEPFRVLSMESKARLLSLVKDYAGLNKVWKVSEDKLAKVLLSTAVNNMLLRDRWDVVAKRRREAGIMGHVYLQA", "values": [
      {"measurement": "binding result", "value": "binds"}
    ]},
    {"protein": "CMV A143V protease (enzyme) MTMDEQQSQAVAPVYVGGFLARYDQSPDEAELLLPRDVVEHWLHAQGQGQPSLSVALPLNINHDDTAVVGHVAAMQSVRDGLFCLGCVTSPRFLEIVRRASEKSELVSRGPVSPLQPDKVVEFLSGSYAGLSLSSRRCDDVEVATSLSGSETTPFKHVALCSVGRRRGTLAVYGRDPEWVTQRFPDLTAADRDGLRAQWQRCGSTAVDASGDPFRSDSYGLLGNSVDALYIRERLPKLRYDKQLVGVTERESYVKA", "values": [
      {"measurement": "binding result", "value": "binds"}
    ]}
  ]
}
